# Measured values published in paper doi:10.1101/2021.01.07.425795 (bioRxiv, 2021).
# B1: ACAD9 (wild type, without a tag) (enzyme, human, UniProt Q9H845 38-621, looked up)
# chain: AFAKELFLGKIKKKEVFPFPEVSQDELNEINQFLGPVEKFFTEEVDSRKIDQEGKIPDETLEKLKSLGLFGLQVPEEYGGLGFSNTMYSRLGEIISMDGSITVTLAAHQAIGLKGIILAGTEEQKAKYLPKLASGEHIAAFCLTEPASGSDAASIRSRATLSEDKKHYILNGSKVWITNGGLANIFTVFAKTEVVDSDGSVKDKITAFIVERDFGGVTNGKPEDKLGIRGSNTCEVHFENTKIPVENILGEVGDGFKVAMNILNSGRFSMGSVVAGLLKRLIEMTAEYACTRKQFNKRLSEFGLIQEKFALMAQKAYVMESMTYLTAGMLDQPGFPDCSIEAAMVKVFSSEAAWQCVSEALQILGGLGYTRDYPYERILRDTRILLIFEGTNEILRMYIALTGLQHAGRILTTRIHELKQAKVSTVMDTVGRRLRDSLGRTVDLGLTGNHGVVHPSLADSANKFEENTYCFGRTVETLLLRFGKTIMEEQLVLKRVANILINLYGMTAVLSRASRSIRIGLRNHDHEVLLANTFCVEAYLQNLFSLSQLDKYAPENLDEQIKKVSQQILEKRAYICAHPLDRTC
# Target: B1
# Assay: SEC
row,Binder,stoichiometry N
1,"His6-C-ECSIT (domain or fragment, human, UniProt Q9BQ95 249-431, looked up) LPKDSTGAADPPQPHIVGIQSPDQQAALARHNPARPVFVEGPFSLWLRNKCVYYHILRADLLPPEEREVEETPEEWNLYYPMQLDLEYVRSGWDNYEFDINEVEEGPVFAMCMAGAHDQATMAKWIQGLQETNPTLAQIPVVFRLAGSTRELQTSSAGLEEPPLPEDHQEEDDNLQRQQQGQS",1 C-ECSIT chains per ACAD9 chain (one tetramer with two dimers)

# Target: the molecule itself
# Assay: SEC
row,Binder,stoichiometry N
1,"His6-C-ECSIT (domain or fragment, human, UniProt Q9BQ95 249-431, looked up) LPKDSTGAADPPQPHIVGIQSPDQQAALARHNPARPVFVEGPFSLWLRNKCVYYHILRADLLPPEEREVEETPEEWNLYYPMQLDLEYVRSGWDNYEFDINEVEEGPVFAMCMAGAHDQATMAKWIQGLQETNPTLAQIPVVFRLAGSTRELQTSSAGLEEPPLPEDHQEEDDNLQRQQQGQS",4
2,"Loop12-ACAD9 (enzyme, human) AFAKELFLGKIKKKEVFPFPEVSQDELNEINQFLGPVEKFFTEEVDSRKIDQEGKIPDETLEKLKSLGLFGLQVPEEYGGLGFSNTMYSRLGEIISMDGSITVTLAAHQAIGLKGIILAGTEEQKAKYLPKLASGEHIAAFCLTEPASGSDAASIRSRATLSEDKKHYILNGSKVWITNGGLANIFTVFAKTEVVDSDGSVKDKITAFIVERDFGGVTNGKPEDKLGIRGSNTCEVHFENTKIPVENILGEVGDGFKVAMNILNSGRFSMGSVVAGLLKRLIEMTAEYACTRKQFNKRLSEFGLIQEKFALMAQKAYVMESMTYLTAGMLDQPGFPDCSIEAAMVKVFSSEAAWQCVSEALQILGGLGYTRDYPYERILRDTRILLIFEGTNEILRMYIALTGLQHAGRILTTGGSGGSGGSGGSDLGLTGNHGVVHPSLADSANKFEENTYCFGRTVETLLLRFGKTIMEEQLVLKRVANILINLYGMTAVLSRASRSIRIGLRNHDHEVLLANTFCVEAYLQNLFSLSQLDKYAPENLDEQIKKVSQQILEKRAYICAHPLDRTC",2
3,"very long chain acyl-CoA dehydrogenase (VLCAD) (enzyme, human, UniProt P49748 41-655, looked up) AGGAAQLALDKSDSHPSDALTRKKPAKAESKSFAVGMFKGQLTTDQVFPYPSVLNEEQTQFLKELVEPVSRFFEEVNDPAKNDALEMVEETTWQGLKELGAFGLQVPSELGGVGLCNTQYARLVEIVGMHDLGVGITLGAHQSIGFKGILLFGTKAQKEKYLPKLASGETVAAFCLTEPSSGSDAASIRTSAVPSPCGKYYTLNGSKLWISNGGLADIFTVFAKTPVTDPATGAVKEKITAFVVERGFGGITHGPPEKKMGIKASNTAEVFFDGVRVPSENVLGEVGSGFKVAMHILNNGRFGMAAALAGTMRGIIAKAVDHATNRTQFGEKIHNFGLIQEKLARMVMLQYVTESMAYMVSANMDQGATDFQIEAAISKIFGSEAAWKVTDECIQIMGGMGFMKEPGVERVLRDLRIFRIFEGTNDILRLFVALQGCMDKGKELSGLGSALKNPFGNAGLLLGEAGKQLRRRAGLGSGLSLSGLVHPELSRSGELAVRALEQFATVVEAKLIKHKKGIVNEQFLLQRLADGAIDLYAMVVVLSRASRSLSEGHPTAQHEKMLCDTWCIEAAARIREGMAALQSDPWQQELYRNFKSISKALVERGGVVTSNPLGF",2
4,B1,2
5,"ACAD9-His6 (enzyme, human, UniProt Q9H845 38-621, looked up) AFAKELFLGKIKKKEVFPFPEVSQDELNEINQFLGPVEKFFTEEVDSRKIDQEGKIPDETLEKLKSLGLFGLQVPEEYGGLGFSNTMYSRLGEIISMDGSITVTLAAHQAIGLKGIILAGTEEQKAKYLPKLASGEHIAAFCLTEPASGSDAASIRSRATLSEDKKHYILNGSKVWITNGGLANIFTVFAKTEVVDSDGSVKDKITAFIVERDFGGVTNGKPEDKLGIRGSNTCEVHFENTKIPVENILGEVGDGFKVAMNILNSGRFSMGSVVAGLLKRLIEMTAEYACTRKQFNKRLSEFGLIQEKFALMAQKAYVMESMTYLTAGMLDQPGFPDCSIEAAMVKVFSSEAAWQCVSEALQILGGLGYTRDYPYERILRDTRILLIFEGTNEILRMYIALTGLQHAGRILTTRIHELKQAKVSTVMDTVGRRLRDSLGRTVDLGLTGNHGVVHPSLADSANKFEENTYCFGRTVETLLLRFGKTIMEEQLVLKRVANILINLYGMTAVLSRASRSIRIGLRNHDHEVLLANTFCVEAYLQNLFSLSQLDKYAPENLDEQIKKVSQQILEKRAYICAHPLDRTC",2
6,"ACAD9 Arg532Trp (enzyme, human, UniProt Q9H845 38-621, looked up) AFAKELFLGKIKKKEVFPFPEVSQDELNEINQFLGPVEKFFTEEVDSRKIDQEGKIPDETLEKLKSLGLFGLQVPEEYGGLGFSNTMYSRLGEIISMDGSITVTLAAHQAIGLKGIILAGTEEQKAKYLPKLASGEHIAAFCLTEPASGSDAASIRSRATLSEDKKHYILNGSKVWITNGGLANIFTVFAKTEVVDSDGSVKDKITAFIVERDFGGVTNGKPEDKLGIRGSNTCEVHFENTKIPVENILGEVGDGFKVAMNILNSGRFSMGSVVAGLLKRLIEMTAEYACTRKQFNKRLSEFGLIQEKFALMAQKAYVMESMTYLTAGMLDQPGFPDCSIEAAMVKVFSSEAAWQCVSEALQILGGLGYTRDYPYERILRDTRILLIFEGTNEILRMYIALTGLQHAGRILTTRIHELKQAKVSTVMDTVGRRLRDSLGRTVDLGLTGNHGVVHPSLADSANKFEENTYCFGRTVETLLLRFGKTIMEEQLVLKWVANILINLYGMTAVLSRASRSIRIGLRNHDHEVLLANTFCVEAYLQNLFSLSQLDKYAPENLDEQIKKVSQQILEKRAYICAHPLDRTC",2
7,"ACAD9 Arg469Trp (enzyme, human, UniProt Q9H845 38-621, looked up) AFAKELFLGKIKKKEVFPFPEVSQDELNEINQFLGPVEKFFTEEVDSRKIDQEGKIPDETLEKLKSLGLFGLQVPEEYGGLGFSNTMYSRLGEIISMDGSITVTLAAHQAIGLKGIILAGTEEQKAKYLPKLASGEHIAAFCLTEPASGSDAASIRSRATLSEDKKHYILNGSKVWITNGGLANIFTVFAKTEVVDSDGSVKDKITAFIVERDFGGVTNGKPEDKLGIRGSNTCEVHFENTKIPVENILGEVGDGFKVAMNILNSGRFSMGSVVAGLLKRLIEMTAEYACTRKQFNKRLSEFGLIQEKFALMAQKAYVMESMTYLTAGMLDQPGFPDCSIEAAMVKVFSSEAAWQCVSEALQILGGLGYTRDYPYERILRDTRILLIFEGTNEILRMYIALTGLQHAGRILTTRIHELKQAKVSTVMDTVGWRLRDSLGRTVDLGLTGNHGVVHPSLADSANKFEENTYCFGRTVETLLLRFGKTIMEEQLVLKRVANILINLYGMTAVLSRASRSIRIGLRNHDHEVLLANTFCVEAYLQNLFSLSQLDKYAPENLDEQIKKVSQQILEKRAYICAHPLDRTC",2
8,"ACAD9 Arg518His (enzyme, human, UniProt Q9H845 38-621, looked up) AFAKELFLGKIKKKEVFPFPEVSQDELNEINQFLGPVEKFFTEEVDSRKIDQEGKIPDETLEKLKSLGLFGLQVPEEYGGLGFSNTMYSRLGEIISMDGSITVTLAAHQAIGLKGIILAGTEEQKAKYLPKLASGEHIAAFCLTEPASGSDAASIRSRATLSEDKKHYILNGSKVWITNGGLANIFTVFAKTEVVDSDGSVKDKITAFIVERDFGGVTNGKPEDKLGIRGSNTCEVHFENTKIPVENILGEVGDGFKVAMNILNSGRFSMGSVVAGLLKRLIEMTAEYACTRKQFNKRLSEFGLIQEKFALMAQKAYVMESMTYLTAGMLDQPGFPDCSIEAAMVKVFSSEAAWQCVSEALQILGGLGYTRDYPYERILRDTRILLIFEGTNEILRMYIALTGLQHAGRILTTRIHELKQAKVSTVMDTVGRRLRDSLGRTVDLGLTGNHGVVHPSLADSANKFEENTYCFGRTVETLLLHFGKTIMEEQLVLKRVANILINLYGMTAVLSRASRSIRIGLRNHDHEVLLANTFCVEAYLQNLFSLSQLDKYAPENLDEQIKKVSQQILEKRAYICAHPLDRTC",2
9,"ACAD9 Glu426Gln (enzyme, human, UniProt Q9H845 38-621, looked up) AFAKELFLGKIKKKEVFPFPEVSQDELNEINQFLGPVEKFFTEEVDSRKIDQEGKIPDETLEKLKSLGLFGLQVPEEYGGLGFSNTMYSRLGEIISMDGSITVTLAAHQAIGLKGIILAGTEEQKAKYLPKLASGEHIAAFCLTEPASGSDAASIRSRATLSEDKKHYILNGSKVWITNGGLANIFTVFAKTEVVDSDGSVKDKITAFIVERDFGGVTNGKPEDKLGIRGSNTCEVHFENTKIPVENILGEVGDGFKVAMNILNSGRFSMGSVVAGLLKRLIEMTAEYACTRKQFNKRLSEFGLIQEKFALMAQKAYVMESMTYLTAGMLDQPGFPDCSIEAAMVKVFSSEAAWQCVSEALQILGGLGYTRDYPYERILRDTRILLIFQGTNEILRMYIALTGLQHAGRILTTRIHELKQAKVSTVMDTVGRRLRDSLGRTVDLGLTGNHGVVHPSLADSANKFEENTYCFGRTVETLLLRFGKTIMEEQLVLKRVANILINLYGMTAVLSRASRSIRIGLRNHDHEVLLANTFCVEAYLQNLFSLSQLDKYAPENLDEQIKKVSQQILEKRAYICAHPLDRTC",2
